Measurements taken from US20230055408A1 (JIANGSU HENGRUI MEDICINE, published 2023).
Where a chain is given by its changes, count along the chain named.

T1: human CEA protein on the cell surface (human, UniProt P06731 35-685)
T1 construct: whole, on cells; also called CEACAM-5; CD66e
T1 sequence (looked up): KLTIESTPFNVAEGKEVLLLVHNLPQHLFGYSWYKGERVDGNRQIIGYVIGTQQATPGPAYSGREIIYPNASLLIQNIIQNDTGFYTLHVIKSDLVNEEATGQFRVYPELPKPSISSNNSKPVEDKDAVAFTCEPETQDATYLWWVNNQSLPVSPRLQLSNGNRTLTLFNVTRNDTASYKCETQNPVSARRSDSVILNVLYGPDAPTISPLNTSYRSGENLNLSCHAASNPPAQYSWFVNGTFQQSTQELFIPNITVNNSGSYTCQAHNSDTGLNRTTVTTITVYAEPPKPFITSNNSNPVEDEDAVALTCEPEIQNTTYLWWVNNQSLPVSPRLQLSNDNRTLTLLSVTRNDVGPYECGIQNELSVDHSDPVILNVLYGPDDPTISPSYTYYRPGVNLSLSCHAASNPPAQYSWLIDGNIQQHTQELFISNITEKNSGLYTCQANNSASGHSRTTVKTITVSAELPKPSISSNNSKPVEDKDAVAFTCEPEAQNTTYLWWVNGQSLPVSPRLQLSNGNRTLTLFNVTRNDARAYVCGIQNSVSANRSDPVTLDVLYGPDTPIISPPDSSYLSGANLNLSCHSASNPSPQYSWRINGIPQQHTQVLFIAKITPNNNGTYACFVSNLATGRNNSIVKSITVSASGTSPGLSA

T2: monkey CEA expressed on CHO cell surface (cynomolgus monkey)
T2 construct: also called cynoCEA-CHO; monkey CEA proteins on the cell surface
T2 chain: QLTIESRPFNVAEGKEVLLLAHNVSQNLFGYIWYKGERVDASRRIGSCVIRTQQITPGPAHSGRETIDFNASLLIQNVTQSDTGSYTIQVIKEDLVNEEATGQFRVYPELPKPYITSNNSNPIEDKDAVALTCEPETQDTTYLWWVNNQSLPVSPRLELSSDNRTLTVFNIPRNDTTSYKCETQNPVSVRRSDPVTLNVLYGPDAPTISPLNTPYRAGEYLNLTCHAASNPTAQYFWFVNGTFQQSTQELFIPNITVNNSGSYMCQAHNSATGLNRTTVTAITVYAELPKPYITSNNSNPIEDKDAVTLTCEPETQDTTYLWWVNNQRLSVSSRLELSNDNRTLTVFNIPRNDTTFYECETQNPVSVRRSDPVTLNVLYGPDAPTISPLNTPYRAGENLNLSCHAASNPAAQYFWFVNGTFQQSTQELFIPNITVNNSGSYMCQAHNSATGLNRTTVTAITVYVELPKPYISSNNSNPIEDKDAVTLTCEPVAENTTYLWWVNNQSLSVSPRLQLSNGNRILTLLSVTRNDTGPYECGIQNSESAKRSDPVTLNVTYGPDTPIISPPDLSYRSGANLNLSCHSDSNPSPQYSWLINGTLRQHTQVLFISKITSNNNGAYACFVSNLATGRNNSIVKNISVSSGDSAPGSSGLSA

B1: Hu63-5 (antibody, human IgG1, kappa, V domains shown)
VH: EVQLVQSGAEVKKPGASVKVSCKASGYTFTDFYMNWVRQAPGQGLEWMGDIFPKNGNTDYNRKFKDRVTLTVDKSTSTVYMELSSLRSEDTAVYYCARSGYGNYVFDYWGQGTLVTVSS
VL: DVQMTQSPSSLSASVGDRVTITCRTSQDINIYLNWYQQKPGKAPKLLIYYRSGLLSGVPSRFSGSGSGTDYTLTISSLQPEDFATYYCQQGNTLPPTFGGGTKVEIKR
B2: Hu63-3 (antibody, human IgG1, kappa, V domains shown)
VH: B1 VH with L70M, V72R, K74T
VL: B1 VL with K42G, P44V
B3: Hu63-8 (antibody, human IgG1, kappa, V domains shown)
VH: B1 VH with M48I, V68A, L83F
VL: B1 VL
B4: Hu63-4 (antibody, human IgG1, kappa, V domains shown)
VH: B1 VH
VL: B1 VL with V2I, Y71F
B5: Hu63-6 (antibody, human IgG1, kappa, V domains shown)
VH: B1 VH
VL: B1 VL with K42G, P44V
B6: Hu63-12 (antibody, human IgG1, kappa, V domains shown)
VH: B1 VH with M48I, R67K, V68A, L83F, S84R
VL: B1 VL with K42G, P44V
B7: Hu63-1 (antibody, human IgG1, kappa, V domains shown)
VH: B1 VH with L70M, V72R, K74T
VL: B1 VL with V2I, Y71F
B8: Hu63-10 (antibody, human IgG1, kappa, V domains shown)
VH: B1 VH with M48I, R67K, V68A, L83F, S84R
VL: B1 VL with V2I, Y71F
B9: Hu63-11 (antibody, human IgG1, kappa, V domains shown)
VH: B1 VH with M48I, R67K, V68A, L83F, S84R
VL: B1 VL
B10: Hu63-2 (antibody, human IgG1, kappa, V domains shown)
VH: B1 VH with L70M, V72R, K74T
VL: B1 VL
B11: Hu63-9 (antibody, human IgG1, kappa, V domains shown)
VH: B1 VH with M48I, V68A, L83F
VL: B1 VL with K42G, P44V
B12: Hu103-11 (antibody, human IgG1, lambda)
heavy: not shown
light: ELVLTQSPSASASLGASVKLTCTLSSQHSTYTIEWYQQQPEKGPRYVMELKKDGSHSTGDGIPDRFSGSSSGAERYLTISSLQSEDEADYYCGVGNTIKEQFVYVFGGGTKLTVLGQPKANPTVTLFPPSSEELQANKATLVCLISDFYPGAVTVAWKADGSPVKAGVETTKPSKQSNNKYAASSYLSLTPEQWKSHRSYSCQVTHEGSTVEKTVAPTECS
B13: Hu103-13 (antibody, human IgG1, lambda)
heavy: not shown
light: B12 light with G43P, Y91I
B14: Hu103-4 (antibody, human IgG1, lambda)
heavy: not shown
light: B12 light with L4V
B15: Hu103-9 (antibody, human IgG1, lambda)
heavy: not shown
light: B12 light with Y36H, V47L
B16: Hu103-10 (antibody, human IgG1, lambda)
heavy: not shown
light: B12 light with V47L
B17: Hu103-12 (antibody, human IgG1, lambda)
heavy: not shown
light: B12 light with L4V
B18: Hu103-5 (antibody, human IgG1, lambda)
heavy: not shown
light: B12 light with G43P, Y91I
B19: Hu103-15 (antibody, human IgG1, lambda)
heavy: not shown
light: B12 light with L4V, G43P, E74D, Y91I
B20: Hu103-3 (antibody, human IgG1, lambda)
heavy: not shown
light: B12 light
B21: Hu103-1 (antibody, human IgG1, lambda, V domains shown)
VH: EVQLVQSGSELKKPGASVKVSCKASGYTFTTYGVIWVRQAPGQGLEWMGWINTYSGVPTYADDFKGRFVFSLDTSVSTAYLQISSLKAEDTAVYYCARKKTLTTVTPWFAYWGQGTLVTVSS
VL: ELVLTQSPSASASLGASVKLTCTLSSQHSTYTIEWHQQQPEKGPRYLMELKKDGSHSTGDGIPDRFSGSSSGAERYLTISSLQSEDEADYYCGVGNTIKEQFVYVFGGGTKLTVLG
B22: Hu103-18 (antibody, human IgG1, lambda)
heavy: not shown
light: B12 light with V47L
B23: Hu103-2 (antibody, human IgG1, lambda, V domains shown)
VH: B21 VH
VL: B21 VL with H36Y
B24: Hu103-17 (antibody, human IgG1, lambda)
heavy: not shown
light: B12 light with Y36H, V47L
B25: Hu103-7 (antibody, human IgG1, lambda, V domains shown)
VH: B21 VH
VL: B21 VL with L4V, H36Y, G43P, L47V, E74D, Y91I
B26: Hu103-6 (antibody, human IgG1, lambda)
heavy: not shown
light: B12 light with L4V, G43P, Y91I
B27: Hu103-14 (antibody, human IgG1, lambda)
heavy: not shown
light: B12 light with L4V, G43P, Y91I

Each binder was assayed against T1, human CEA protein on the cell surface (assay: FACS, MKN45 cells).
Protocol: (§1) In order to detect the binding of the antibody to the CEA protein on the cell surface, the binding activity of the antibody was determined by FACS using cells expressing CEA on the cell surface. Cells were harvested and centrifuged at 400 g at 4° C. for 5 min. Pre-cooled PBS containing FBS at final concentration 10% was added, and the mixture was centrifuged at 400 g at 4° C. for 5 min; the procedures were repeated twice. The cells were seeded into a 96-well plate at 10⁵ cells/well, and 100 μL of gradient diluted antibody solution was added to each well. The plate was incubated at 4° C. for 60 min and centrifuged, and the supernatant was removed. 250 μL of pre-cooled PBS containing FBS at final concentration 10% was added to each well to resuspend the cells, and the suspension was centrifuged at 400 g at 4° C. for 5 min, followed by the removal of the supernatant; the procedures were repeated twice. 50 μL of 1:200 diluted secondary antibody Alexa Fluor@488 goat anti-human IgG (H+L) (Lifetechologies, Cat #A11013) was added. […] 250 μL of pre-cooled PBS containing FBS at final concentration 10% was added to each cell to resuspend the cells, and the suspension was centrifuged at 400 g at 4° C. for 5 min; the procedures were repeated twice. 100 μL of pre-cooled PBS was added to each well to resuspend the cells. The plate was analyzed by a flow cytometer (BD, FACSverse) for fluorescence signal values.

EC50	Binder
3.7 nM	B1
3.56 nM	B2
3.24 nM	B3
5.18 nM	B4
3.71 nM	B5
4.04 nM	B6
4.23 nM	B7
4.95 nM	B8
4.35 nM	B9
3.73 nM	B10
4.87 nM	B11
2.71 nM	B12
2.53 nM	B13
2.62 nM	B14
2.95 nM	B15
2.23 nM	B16
2.38 nM	B17
2.38 nM	B18
2.13 nM	B19
1.91 nM	B20
2.37 nM	B21
2.75 nM	B22
2.18 nM	B23
2.92 nM	B24
2.2 nM	B25
1.27 nM	B26
2.41 nM	B27

Target: T2, monkey CEA expressed on CHO cell surface
Assay: FACS, cynoCEA-CHO cells
Protocol: as §1

EC50	Binder
2.14 nM	B1
2.01 nM	B2
2.43 nM	B3
1.95 nM	B4
2.88 nM	B5
2.23 nM	B6
1.88 nM	B8
2.29 nM	B9
2.47 nM	B11
0.92 nM	B12
1.01 nM	B13
1.32 nM	B14
1.61 nM	B15
1 nM	B16
1.08 nM	B17
1.47 nM	B18
1.36 nM	B19
1.18 nM	B20
2.49 nM	B21
0.89 nM	B22
1.26 nM	B23
1.52 nM	B24
1.62 nM	B25
1.56 nM	B26
1.37 nM	B27
